Experimental data as given in patent USRE46585 (LABORATOIRE FRANCAIS DU FRACTIONNEMENT ET DES …, dated 2017).
Where a chain is given by its changes, count along the chain named. Like-named read-outs stand apart in the source and are kept apart here. Each block holds one binder with its values, some of them ahead of it.

Tests used:
FcRn-p3 fusion protein [1] = target: T1, FcRn-p3 fusion protein (human, UniProt P55899 24-297; P61769 21-119); assay: phage ELISA pH6
T1 construct: baculovirus expressed; coated on ELISA wells; not shown: amino terminal part of bacteriophage p3 protein and CVDE protein

FcRn-p3 fusion protein [2] = target: T1, FcRn-p3 fusion protein; assay: phage ELISA pH6 (est.)
FcRn-p3 fusion protein [3] = target: T1, FcRn-p3 fusion protein; assay: phage ELISA pH6; remark: listed apart in the source
FcRn-p3 fusion protein [4] = target: T1, FcRn-p3 fusion protein; assay: phage ELISA pH6 (est.); remark: listed apart in the source

B3: T7A_24 (other)
chain: CPPCPAPELLGGPSVFLFPPKPKDTLMISRTPEVTCVVEDVSHEDPEVKFNWYVDGVEVHNAKTKPREEQYNSTYRVVSVLTVLHQDWLNGKEYKCKVSNKALPAPIEKTISKAKGQPREPQVYTLPPSRDELTKNQVSLTCLVKGFYPSDIVVEWESNGQPENNYKTTPPVLDSDGSFFLYSKLTVDKSRWQQGTVFSCSVMHEALHYHYTQKSLSLSPGK
notes: EU numbering
Ratio/Fc-H (FcRn-p3 fusion protein [3]): 2.3 fold
Ratio/FWT (FcRn-p3 fusion protein [4]): 7.2 fold

B4: T5A_40 (other)
chain: B3 chain with P5T, T82P, Y209N
notes: EU numbering
Ratio/Fc-H (FcRn-p3 fusion protein [3]): 3.4 fold
Ratio/FWT (FcRn-p3 fusion protein [4]): 10.8 fold

B5: T5A_05 (other)
chain: B3 chain with E44G, Y209S
notes: EU numbering
Ratio/Fc-H (FcRn-p3 fusion protein [3]): 2.7 fold
Ratio/FWT (FcRn-p3 fusion protein [4]): 8.8 fold

B6: T7A_48 (other)
chain: B3 chain with P5T, L9R, E39V, N90D, A105V, V153A, T196N
notes: EU numbering
Ratio/Fc-H (FcRn-p3 fusion protein [3]): 3.6 fold
Ratio/FWT (FcRn-p3 fusion protein [4]): 11.6 fold

B8: T5A_03 (other)
chain: B3 chain with V153A, P171L, T196N, Y209S
notes: EU numbering
Ratio/Fc-H (FcRn-p3 fusion protein [3]): 2 fold
Ratio/FWT (FcRn-p3 fusion protein [4]): 6.4 fold

B10: T4A_41 (other)
chain: B3 chain with F16R, T82P, T196N, Y209N
notes: EU numbering
Ratio/Fc-H (FcRn-p3 fusion protein [3]): 2.5 fold
Ratio/FWT (FcRn-p3 fusion protein [4]): 8 fold

B11: T7A_46 (other)
chain: B3 chain with G160R, T196N, Y209S
notes: EU numbering
Ratio/Fc-H (FcRn-p3 fusion protein [3]): 2.6 fold
Ratio/FWT (FcRn-p3 fusion protein [4]): 8.2 fold

B14: T7A_18 (other)
chain: B3 chain with Q161R, T196N, Y209S
notes: EU numbering
Ratio/Fc-H (FcRn-p3 fusion protein [3]): 2.8 fold
Ratio/FWT (FcRn-p3 fusion protein [4]): 8.9 fold

B16: T4A_31 (other)
chain: B3 chain with P5T, F16L, T82P, T196N, Y209N
notes: EU numbering
Ratio/Fc-H (FcRn-p3 fusion protein [3]): 3.7 fold
Ratio/FWT (FcRn-p3 fusion protein [4]): 11.7 fold

B19: T3A_43 (other)
chain: B3 chain with E120G, T196N, Y209N
notes: EU numbering
Ratio/Fc-H (FcRn-p3 fusion protein [3]): 1.4 fold
Ratio/FWT (FcRn-p3 fusion protein [4]): 4.5 fold

B21: T7A_57 (other)
chain: B3 chain with P5T, E39V, T82A, N90D, A105V, V153A, Q193E, T196N
notes: EU numbering
Ratio/Fc-H (FcRn-p3 fusion protein [3]): 2.5 fold
Ratio/FWT (FcRn-p3 fusion protein [4]): 8.1 fold

B26: T7A_58 (other)
chain: B3 chain with E39V, N90D, Q137E, V153A, T196N
notes: EU numbering
Ratio/Fc-H (FcRn-p3 fusion protein [3]): 2.9 fold
Ratio/FWT (FcRn-p3 fusion protein [4]): 9.4 fold

B27: T6A_47 (other)
chain: B3 chain with P5T, E39V, K95T, V153A, T196N
notes: EU numbering
Ratio/Fc-H (FcRn-p3 fusion protein [3]): 2.8 fold
Ratio/FWT (FcRn-p3 fusion protein [4]): 9.1 fold

B31: T4A_39 (other)
chain: B3 chain with P171L, T196N, Y209N
notes: EU numbering
Ratio/Fc-H (FcRn-p3 fusion protein [3]): 1.4 fold
Ratio/FWT (FcRn-p3 fusion protein [4]): 4.4 fold

B34: T8A_41 (other)
chain: B3 chain with P118S, T196N, Y209S
notes: EU numbering
Ratio/Fc-H (FcRn-p3 fusion protein [3]): 2.5 fold
Ratio/FWT (FcRn-p3 fusion protein [4]): 7.9 fold

B37: T5A_44 (other)
chain: B3 chain with F16L, T82P, V153T, V172M, T196N, Y209N
notes: EU numbering
Ratio/Fc-H (FcRn-p3 fusion protein [3]): 1.2 fold
Ratio/FWT (FcRn-p3 fusion protein [4]): 3.8 fold

B39: T4A_04 (other)
chain: B3 chain with E39V, N90D, A105V, V153A, E157V, T196N
notes: EU numbering
Ratio/Fc-H (FcRn-p3 fusion protein [3]): 3 fold
Ratio/FWT (FcRn-p3 fusion protein [4]): 9.7 fold

B41: T6A_93 (other)
chain: B3 chain with E39V, T74K, Q86R, N90D, V153A, T196N
notes: EU numbering
Ratio/Fc-H (FcRn-p3 fusion protein [3]): 1.1 fold
Ratio/FWT (FcRn-p3 fusion protein [4]): 3.5 fold

B43: T7A_17 (other)
chain: B3 chain with P66S, Q137R, T196N
notes: EU numbering
Ratio/Fc-H (FcRn-p3 fusion protein [3]): 2 fold
Ratio/FWT (FcRn-p3 fusion protein [4]): 6.3 fold

B46: T5A_90 (other)
chain: B3 chain with E39V, N90D, A105V, V153A, K167R, T196N, S199L
notes: EU numbering
Ratio/Fc-H (FcRn-p3 fusion protein [3]): 1.8 fold
Ratio/FWT (FcRn-p3 fusion protein [4]): 5.7 fold

B50: T4A_26 (other)
chain: B3 chain with T82P, E157G, Q161R, T196N, Y209N
notes: EU numbering
Ratio/Fc-H (FcRn-p3 fusion protein [3]): 3.6 fold
Ratio/FWT (FcRn-p3 fusion protein [4]): 11.5 fold

Continued, values first:

Ratio/Fc-H (FcRn-p3 fusion protein [1]): 5.3 fold
Ratio/Fc-WT (FcRn-p3 fusion protein [2]): 17.1 fold
B1: C6A_60C (other)
chain: B3 chain with P3L, P5S, E39V, N90D, V153A, T196N, M203L
notes: EU numbering

Ratio/Fc-H (FcRn-p3 fusion protein [3]): 2.5 fold
Ratio/FWT (FcRn-p3 fusion protein [4]): 8.2 fold
B2: T8A_81 (other)
chain: B3 chain with E39A, N90D, V153A, E157V, T196N
notes: EU numbering

Ratio/Fc-H (FcRn-p3 fusion protein [3]): 1.9 fold
Ratio/FWT (FcRn-p3 fusion protein [4]): 6 fold
B7: T5A_29 (other)
chain: B3 chain with E39V, N90D, V153A, E157V, T196N
notes: EU numbering

Ratio/Fc-H (FcRn-p3 fusion protein [3]): 2.3 fold
Ratio/FWT (FcRn-p3 fusion protein [4]): 7.2 fold
B9: T3A_41 (other)
chain: B3 chain with T82P, T196N, Y209N
notes: EU numbering

Ratio/Fc-H (FcRn-p3 fusion protein [3]): 1.3 fold
Ratio/FWT (FcRn-p3 fusion protein [4]): 4.3 fold
B12: T4A_34 (other)
chain: B3 chain with Q193K, T196N, Y209N
notes: EU numbering

Ratio/Fc-H (FcRn-p3 fusion protein [3]): 3.6 fold
Ratio/FWT (FcRn-p3 fusion protein [4]): 11.6 fold
B13: T7A_49 (other)
chain: B3 chain with P5T, E39V, N90D, K95E, Q137R, V153A, T196N
notes: EU numbering

Ratio/Fc-H (FcRn-p3 fusion protein [3]): 1.8 fold
Ratio/FWT (FcRn-p3 fusion protein [4]): 5.6 fold
B15: T8A_34 (other)
chain: B3 chain with E39V, T82A, N90D, T110A, V153A, T196N
notes: EU numbering

Ratio/Fc-H (FcRn-p3 fusion protein [3]): 3.5 fold
Ratio/FWT (FcRn-p3 fusion protein [4]): 11.1 fold
B17: T8A_24 (other)
chain: B3 chain with T82P, T196N, Y209S
notes: EU numbering

Ratio/Fc-H (FcRn-p3 fusion protein [3]): 2.8 fold
Ratio/FWT (FcRn-p3 fusion protein [4]): 9.1 fold
B18: T6A_40 (other)
chain: B3 chain with P5A, F16L, Y209N
notes: EU numbering

Ratio/Fc-H (FcRn-p3 fusion protein [3]): 3.6 fold
Ratio/FWT (FcRn-p3 fusion protein [4]): 11.4 fold
B20: T4A_46 (other)
chain: B3 chain with P5T, E39V, V153A, N164K, T196N
notes: EU numbering

Ratio/Fc-H (FcRn-p3 fusion protein [3]): 1.7 fold
Ratio/FWT (FcRn-p3 fusion protein [4]): 5.4 fold
B22: T7A_35 (other)
chain: B3 chain with E39V, N90D, Q137R, V153A, T196N, S219P
notes: EU numbering

Ratio/Fc-H (FcRn-p3 fusion protein [3]): 2.4 fold
Ratio/FWT (FcRn-p3 fusion protein [4]): 7.8 fold
B23: T5A_59 (other)
chain: B3 chain with E39V, Q117R, R130G, V153A, E157V, T196N
notes: EU numbering

Ratio/Fc-H (FcRn-p3 fusion protein [3]): 1.8 fold
Ratio/FWT (FcRn-p3 fusion protein [4]): 5.9 fold
B24: T8A_45 (other)
chain: B3 chain with E39V, S150A, T196N
notes: EU numbering

Ratio/Fc-H (FcRn-p3 fusion protein [3]): 2.8 fold
Ratio/FWT (FcRn-p3 fusion protein [4]): 9 fold
B25: T5A_51 (other)
chain: B3 chain with F179L, T196N, Y209S
notes: EU numbering

Ratio/Fc-H (FcRn-p3 fusion protein [3]): 3.6 fold
Ratio/FWT (FcRn-p3 fusion protein [4]): 11.4 fold
B28: T4A_19 (other)
chain: B3 chain with E39V, T82P, T196N, Y209S
notes: EU numbering

Ratio/Fc-H (FcRn-p3 fusion protein [3]): 2.5 fold
Ratio/FWT (FcRn-p3 fusion protein [4]): 7.9 fold
B29: T5A_28 (other)
chain: B3 chain with F16L, T196N
notes: EU numbering

Ratio/Fc-H (FcRn-p3 fusion protein [3]): 2.2 fold
Ratio/FWT (FcRn-p3 fusion protein [4]): 7 fold
B30: T5A_37 (other)
chain: B3 chain with E39V, S73G, N90D, A105V, V153A, T196N
notes: EU numbering

Ratio/Fc-H (FcRn-p3 fusion protein [3]): 3 fold
Ratio/FWT (FcRn-p3 fusion protein [4]): 9.7 fold
B32: T4A_18 (other)
chain: B3 chain with E39V, N90D, Q117R, V153A, E157V, T196N
notes: EU numbering

Ratio/Fc-H (FcRn-p3 fusion protein [3]): 2.9 fold
Ratio/FWT (FcRn-p3 fusion protein [4]): 9.3 fold
B33: T7A_87 (other)
chain: B3 chain with P5S, E39V, N90D, Q137R, V153A, T196N
notes: EU numbering

Ratio/Fc-H (FcRn-p3 fusion protein [3]): 2.3 fold
Ratio/FWT (FcRn-p3 fusion protein [4]): 7.4 fold
B35: T4A_32 (other)
chain: B3 chain with T196N, H208R, Y209N
notes: EU numbering

Ratio/Fc-H (FcRn-p3 fusion protein [3]): 1.9 fold
Ratio/FWT (FcRn-p3 fusion protein [4]): 5.9 fold
B36: T5A_52 (other)
chain: B3 chain with E39V, N90D, A102V, A105V, V153A, T196N
notes: EU numbering

Ratio/Fc-H (FcRn-p3 fusion protein [3]): 2.9 fold
Ratio/FWT (FcRn-p3 fusion protein [4]): 9.3 fold
B38: T6A_13 (other)
chain: B3 chain with P5T, E39V, N90D, A105V, Q137R, V153A, T196N
notes: EU numbering

Ratio/Fc-H (FcRn-p3 fusion protein [1]): 4.8 fold
Ratio/Fc-WT (FcRn-p3 fusion protein [2]): 15.3 fold
B40: C6A_69D (other)
chain: B3 chain with P3L, E39V, T82A, N90D, A105V, V153A, E157V, N164T, T196N
notes: EU numbering

Ratio/Fc-H (FcRn-p3 fusion protein [1]): 18.6 fold
Ratio/Fc-WT (FcRn-p3 fusion protein [2]): 59.7 fold
B42: C6A_74D (other)
chain: B3 chain with P3R, V34I, E39V, N90D, V153A, T196N
notes: EU numbering

Ratio/Fc-H (FcRn-p3 fusion protein [3]): 2.7 fold
Ratio/FWT (FcRn-p3 fusion protein [4]): 8.7 fold
B44: T4A_45 (other)
chain: B3 chain with L84P, V153A, P171L, T196N, Y209S
notes: EU numbering

Ratio/Fc-H (FcRn-p3 fusion protein [3]): 2 fold
Ratio/FWT (FcRn-p3 fusion protein [4]): 6.3 fold
B45: T4A_43 (other)
chain: B3 chain with E39V, I107V, K145R, T196N, Y209S
notes: EU numbering

Ratio/Fc-H (FcRn-p3 fusion protein [1]): 7.4 fold
Ratio/Fc-WT (FcRn-p3 fusion protein [2]): 23.8 fold
B47: C6A_60D (other)
chain: B3 chain with P3R, P5S, E39V, N90D, V153A, T196N, M203L
notes: EU numbering

Ratio/Fc-H (FcRn-p3 fusion protein [3]): 2 fold
Ratio/FWT (FcRn-p3 fusion protein [4]): 6.3 fold
B48: T3A_47 (other)
chain: B3 chain with E39V, T82P, V153T, V172M, T196N, Y209N
notes: EU numbering

Ratio/Fc-H (FcRn-p3 fusion protein [3]): 3.8 fold
Ratio/FWT (FcRn-p3 fusion protein [4]): 12 fold
B49: T4A_44 (other)
chain: B3 chain with C1G, F179L, T196N, Y209N
notes: EU numbering
